Measured values as given in patent publication US7179650.

Key:
[1] = molecular target: pGBT9-Fas (191-319AA): intracellular domain of Fas/APO-1 fused to the GAL4 DNA-binding domain (human); test: yeast two-hybrid β-galactosidase filter assay
[2] = molecular target: P53 (yeast two-hybrid control); test: yeast two-hybrid β-galactosidase filter assay (control pair)
Chain of P53 (yeast two-hybrid control) (P02340 72-390): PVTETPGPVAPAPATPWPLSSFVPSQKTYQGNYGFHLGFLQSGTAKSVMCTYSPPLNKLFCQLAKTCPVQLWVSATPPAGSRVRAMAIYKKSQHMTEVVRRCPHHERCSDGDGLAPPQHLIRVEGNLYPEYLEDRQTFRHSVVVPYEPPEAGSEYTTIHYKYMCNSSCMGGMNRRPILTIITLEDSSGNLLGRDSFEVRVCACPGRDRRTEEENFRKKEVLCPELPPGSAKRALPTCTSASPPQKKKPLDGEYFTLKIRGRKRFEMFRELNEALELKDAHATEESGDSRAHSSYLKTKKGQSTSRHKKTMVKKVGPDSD

Substance | time for the colony to turn blue [1] [h] | time for the colony to turn blue [2] [min]
Sentrin-1 (SEQ ID NO:2) fused to the Gal4 activation-domain (from UniProt A7WLH8 1-101) | < 3 | –
SV40 T antigen (yeast two-hybrid control) (from UniProt P03070 84-708) | – | < 30
Clone 68: in-frame fusion of the Gal4 activation domain to the death domain of FADD/MORT1 (from UniProt Q13158 80-208) | < 3 | –
